Measured values taken from patent US20210355166A1, “[…] METHODS OF USE THEREOF” (priority 2018, published 2021).
Non-standard residues stand in square brackets, D forms with d. Residues, ends and D or L forms follow the SMILES beside them. No end group written: not given here. *: point of attachment. βGlc = OC[C@H]1O[C@@H](*)[C@H](O)[C@@H](O)[C@@H]1O; Dmt = Cc1cc(O)cc(C)c1C[C@H](N)C(=O)O

Legend:
human MOPr (hMOPr) = target: T1, human MOPr (hMOPr) (Homo sapiens, UniProt P35372); assay: Inhibition of forskolin induced cAMP formation in HEK cells expressing hMOPr; type: cell-based; settings: for activity in cAMP screen: 10 μM; for TetraQ, initial screen % inhibition of forskolin-stimulate cAMP formation in hMOPr HEK cells: 10 um
T1 construct: expressed in transfected cells; host or cells: HEK cells
T1 sequence (P35372 whole entry): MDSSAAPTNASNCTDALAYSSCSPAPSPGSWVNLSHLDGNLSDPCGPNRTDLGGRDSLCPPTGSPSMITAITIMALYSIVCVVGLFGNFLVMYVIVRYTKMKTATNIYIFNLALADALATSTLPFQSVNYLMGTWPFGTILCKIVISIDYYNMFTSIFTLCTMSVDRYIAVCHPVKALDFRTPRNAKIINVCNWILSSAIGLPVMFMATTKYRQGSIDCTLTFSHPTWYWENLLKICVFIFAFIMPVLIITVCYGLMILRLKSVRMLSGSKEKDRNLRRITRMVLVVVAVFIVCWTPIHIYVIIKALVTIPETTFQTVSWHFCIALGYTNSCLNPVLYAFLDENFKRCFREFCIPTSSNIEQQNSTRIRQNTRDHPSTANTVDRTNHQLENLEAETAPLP
Description: Procedure for measuring the level of intracellular cAMP produced upon modulation of adenylate cyclase activity by G-protein-coupled receptors (GPCRs). To test the functional interaction between opioids, and opioid-like compounds, and specific opioid GPCRs by measuring changes in intracellular cAMP levels relative to basal levels. The assay can measure agonist and antagonist activity on GPCRs by stimulating cells to either increase or decrease intracellular cAMP levels.
The assay is performed in a 384-well plate and each data point is performed in triplicate. The test compounds should be analyzed on the same plate as controls and cAMP standards. The number of compounds to be screened for activity will determine the volume of reagents and cells required for each experiment. The test compounds, controls and cAMP standards can be added to the plate in advance or while the cells are incubating with stimulation buffer. The plate should be sealed with TopSeal adhesive sealing film to avoid evaporation.
Assay background: Detection of cAMP is based on the competition between intracellular cAMP and biotinylated cAMP linked streptavidin-coated donor beads for anti-cAMP conjugated acceptor beads. When the donor and acceptor beads are in close proximity a signal emitted at 520-620 nm is detected using the Envision multilabel plate reader.
Preparation of test peptides: Test peptides are typically tested at a final concentration of 10 μM. As most test peptides are dissolved in 100% DMSO it is recommended that the DMSO concentration is limited to 2% v/v during cell stimulation to ensure maximum cell viability and responsiveness. Prepare 1 mM and 100 μM stock solutions of test peptides in an appropriate diluent and store at 4° C. For a library of peptides this can be performed in 96 well plates sealed with silicon sealing mats. Test peptides are diluted fresh from stock solutions to a working concentration in stimulation buffer with forskolin. It should be noted that as peptides are diluted 1:1 with cells in the assay the working concentration should be twice the final required concentration. It may be necessary to perform assays on compounds freshly diluted from DMSO stocks compounds to avoid experimental variability.
Preparation of cells: For best results cells should be low passage at 70-90% confluence. To prepare cells for the assay remove growth medium, add Versene and then incubate at 37° C. for approximately 5 minutes to allow cells to detach from the tissue culture plastic. Collect cells and centrifuge for 2 minutes at 275×g. Decant the supernatant and resuspend the cell pellet in 1×PBS. Determine the cell concentration using a haemocytometer. Re-centrifuge cells for 2 minutes at 275×g and decant supernatant. Resuspend cells in stimulation buffer to a final concentration of 1-4×10^4 cells per ml. Note that the cells number will influence the cAMP levels prevailing before (basal) and after adenylate cyclase activation. A cell titration should be performed to optimize the difference between basal and stimulation levels of cAMP. Cells are incubated in stimulation buffer for 20 to 30 minutes at 37° C. prior to adding 5 μl to wells containing test and control compounds. Note that cells are not added to the cAMP standards.
1. Add standards (10 μl/well), control compounds (5 μl/well) and test peptides (5 μl/well) into 384-well plates and seal with Top Seal adhesive sealing film. Leave at room temperature until the cell incubation is complete. 2. Add 5 μl cells incubated in stimulation buffer to the wells containing test peptides and control compounds, but not to the standards. Incubate cells and compounds for 30 min at 37° C. 3. Add 10 μl lysis buffer per well. 4. Under subdued lighting add 5 μl acceptor bead solution to each well. Wrap plate in foil and incubate at room temperature with gentle mixing on an orbital shaker for 60 min. 5. […]

C57BL/6 mice = assay: Nociception (analgesia) testing on 54 C hotplate; type: in vivo, mouse; settings: 54° C. hotplate, s.c.
Description: Experiments were performed under the guidelines of the Australian code of practice for the care and use of animals for scientific purposes (National Health and Medical Research Council, Australia, 7th Edition). Great care was taken to minimise animal suffering during these experiments and to reduce the number of animals used. […] Food and water was available ad libitum. Mice were given at least 7 days to habituate to housing facilities prior to handling, and handled by the experimenter for 4 days prior to testing. […] The experimenter was blind to all drugs tested. Animals were tested on a 54° C. hotplate, with a maximum cut-off time of 20 seconds to prevent tissue damage. Endpoints were hindpaw lick, hindpaw flutter or jump. […] The percentage of maximal possible effects (% MPE) were calculated as follows: % MPE=(test latency−baseline latency)/(cutoff latency−baseline latency)×100%. The cut-off latency was 20 seconds. Significant differences were assessed with a two-way ANOVA and Tukey's post hoc multiple comparisons test. […] Doses were transformed to the logarithm of μmol/kg. A two-way ANOVA was used to compare data at equimolar doses.

[1] = target: T2, human µ-opioid receptor (hMOPr), human recombinant MOPr expressed in HEK-293 cells (human, UniProt P35372 1-400); assay: cell-based or functional assay
T2 sequence (P35372 whole entry): as above

[2] = target: T2, human µ-opioid receptor (hMOPr), human …; assay: competition with [3H]DAMGO (0.5 nM), membranes with human recombinant MOPr (HEK-293), filtration and scintillation counting
Description: The specific ligand binding to the receptors is defined as the difference between the total binding and the nonspecific binding determined in the presence of an excess of an unlabelled opioid ligand (naloxone, 10 μM). The results are expressed as a percent of control specific binding ((measured specific binding/control specific binding)×100) obtained in the presence of unlabelled peptides of interest. The IC₅₀ values (concentration causing a half-maximal inhibition of control specific binding) and Hill coefficients (nH) were determined by non-linear regression analysis of the competition curves generated with mean replicate values using Hill equation curve fitting (Y=D+[(A−D)/(1+(C/C₅₀nH)], where Y=specific binding, D=minimum specific binding, A=maximum specific binding, C=compound concentration, C₅₀=IC₅₀, and nH=slope factor).

Molecule: H-FvVy-NH2 [2b]
- activity in cAMP screen (human MOPr (hMOPr)): Neither Bilaid B (2a) nor its C-terminal carboxamide analogue (2b) showed activity
- TetraQ, initial screen % inhibition of forskolin-stimulate cAMP formation in hMOPr HEK cells (human MOPr (hMOPr)): 0%

Molecule: CC(C)[C@H](NC(=O)[C@H](NC(=O)[C@@H](N)Cc1ccc(O)cc1)C(C)C)C(=O)N[C@H](Cc1ccccc1)C(=O)O [peptide 3a, L-Tyr-D-Val-L-Val-D-Phe]
- activity in cAMP screen (human MOPr (hMOPr)): showed activity

Molecule: H-FVvf-OH [1c]
- activity in cAMP screen (human MOPr (hMOPr)): inactive
- TetraQ, initial screen % inhibition of forskolin-stimulate cAMP formation in hMOPr HEK cells (human MOPr (hMOPr)): 0%

Molecule: CC(C)[C@H](NC(=O)[C@H](NC(=O)[C@@H](N)Cc1ccccc1)C(C)C)C(=O)N[C@H](Cc1ccccc1)C(=O)O [peptide 1a, L-Phe-D-Val-L-Val-D-Phe] (H-F[dV]V[dF]-OH)
- activity in cAMP screen (human MOPr (hMOPr)): showed activity
- TetraQ, initial screen % inhibition of forskolin-stimulate cAMP formation in hMOPr HEK cells (human MOPr (hMOPr)): 21%

Molecule: CC(C)[C@@H](NC(=O)[C@@H](N)Cc1ccccc1)C(=O)NCC(=O)N[C@H](Cc1ccc(O)cc1)C(N)=O [peptide 2d, L-Phe-D-Val-Gly-D-Tyr-NH2] (H-F[dV]G[dY]-NH2)
- TetraQ, initial screen % inhibition of forskolin-stimulate cAMP formation in hMOPr HEK cells (human MOPr (hMOPr)): 31%

Molecule: H-fvVF-OH [1d]
- TetraQ, initial screen % inhibition of forskolin-stimulate cAMP formation in hMOPr HEK cells (human MOPr (hMOPr)): 0%

Molecule: 2,6-dimethyl-L-tyrosine-D-Val-L-Val-D-Phe-L-Ser(β-D-Glc)-NH2 ([Dmt][dV]V[dF]S(βGlc)-NH2; N-terminus assumed; SMILES Cc1cc(O)cc(C)c1C[C@H](N)C(=O)N[C@@H](C(=O)N[C@H](C(=O)N[C@H](Cc1ccccc1)C(=O)N[C@@H](CO[C@@H]1O[C@H](CO)[C@@H](O)[C@H](O)[C@H]1O)C(N)=O)C(C)C)C(C)C) [peptide 3h]
- analgesic activity after systemic administration (C57BL/6 mice): systemically inactive

Molecule: H-FVvf-NH2 [1g]
- TetraQ, initial screen % inhibition of forskolin-stimulate cAMP formation in hMOPr HEK cells (human MOPr (hMOPr)): 0%

Molecule: H-FGVy-NH2 (H-FGV[dY]-NH2; SMILES CC(C)[C@H](NC(=O)CNC(=O)[C@@H](N)Cc1ccccc1)C(=O)N[C@H](Cc1ccc(O)cc1)C(N)=O) [2e]
- TetraQ, initial screen % inhibition of forskolin-stimulate cAMP formation in hMOPr HEK cells (human MOPr (hMOPr)): 0%

Molecule: H-FVVY-NH2 [2c]
- TetraQ, initial screen % inhibition of forskolin-stimulate cAMP formation in hMOPr HEK cells (human MOPr (hMOPr)): 0%

Molecule: H-FGGy-NH2 (H-FGG[dY]-NH2; SMILES NC(=O)[C@@H](Cc1ccc(O)cc1)NC(=O)CNC(=O)CNC(=O)[C@@H](N)Cc1ccccc1) [2f]
- TetraQ, initial screen % inhibition of forskolin-stimulate cAMP formation in hMOPr HEK cells (human MOPr (hMOPr)): 0%

Molecule: H-FvVy-OH (H-F[dV]V[dY]-OH; SMILES CC(C)[C@H](NC(=O)[C@H](NC(=O)[C@@H](N)Cc1ccccc1)C(C)C)C(=O)N[C@H](Cc1ccc(O)cc1)C(=O)O) [2a]
- activity in cAMP screen (human MOPr (hMOPr)): Neither Bilaid B (2a) nor its C-terminal carboxamide analogue (2b) showed activity
- TetraQ, initial screen % inhibition of forskolin-stimulate cAMP formation in hMOPr HEK cells (human MOPr (hMOPr)): 0%

Molecule: H-fVvF-NH2 [1f]
- TetraQ, initial screen % inhibition of forskolin-stimulate cAMP formation in hMOPr HEK cells (human MOPr (hMOPr)): 0%

Molecule: H-fVvF-OH [1b]
- activity in cAMP screen (human MOPr (hMOPr)): inactive
- TetraQ, initial screen % inhibition of forskolin-stimulate cAMP formation in hMOPr HEK cells (human MOPr (hMOPr)): 0%

Molecule: C[C@@H](NC(=O)[C@@H](N)Cc1ccc(O)cc1)C(=O)NCC(=O)N(C)[C@@H](Cc1ccccc1)C(=O)NCCO [DAMGO, [D-Ala^2, N-MePhe^4, Gly^5-ol]-enkephalin, reference compound]
- TetraQ, initial screen % inhibition of forskolin-stimulate cAMP formation in hMOPr HEK cells (human MOPr (hMOPr)): DAMGO = 94%)

B1: bilaid A (H-FvVf-OH; L-Phe-D-Val-L-Val-D-Phe) (peptide)
peptide: H-F[dV]V[dF]-OH
SMILES: CC(C)[C@H](NC(=O)[C@H](NC(=O)[C@@H](N)Cc1ccccc1)C(C)C)C(=O)N[C@H](Cc1ccccc1)C(=O)O
notes: Natural product of Penicillium sp; MST-MF667; made by Fmoc synthesis for the assays; also called 1a; peptide 1a
- % inhibition of forskolin-stimulate cAMP formation in hMOPr HEK cells (10 um) [1]: 21%
- Ki [2]: 3.1 µM

B2: bilaid C (H-YvVf-OH; L-Tyr-D-Val-L-Val-D-Phe) (peptide)
peptide: YVVF
modifications: D-Val at 2; D-Phe at 4; free C-terminal acid
notes: Natural product of Penicillium sp; MST-MF667; made by Fmoc synthesis; also called 3a; peptide 3a
- % inhibition of forskolin-stimulate cAMP formation in hMOPr HEK cells (10 um) [1]: 77%
- Ki [2]: 0.21 µM

B3: H-FvVy-NH2 (peptide)
peptide: H-F[dV]V[dY]-NH2
SMILES: CC(C)[C@H](NC(=O)[C@H](NC(=O)[C@@H](N)Cc1ccccc1)C(C)C)C(=O)N[C@H](Cc1ccc(O)cc1)C(N)=O
- % inhibition of forskolin-stimulate cAMP formation in hMOPr HEK cells (10 um) [1]: 0%

Molecule: H-FVVY-NH2 [H-FVVY-NH2]
- % inhibition of forskolin-stimulate cAMP formation in hMOPr HEK cells (10 um) [1]: 0%

B4: H-FvGy-NH2 (L-Phe-D-Val-Gly-D-Tyr-NH2) (peptide)
peptide: H-F[dV]G[dY]-NH2
SMILES: CC(C)[C@@H](NC(=O)[C@@H](N)Cc1ccccc1)C(=O)NCC(=O)N[C@H](Cc1ccc(O)cc1)C(N)=O
notes: also called 2d; peptide 2d
- % inhibition of forskolin-stimulate cAMP formation in hMOPr HEK cells (10 um) [1]: 31%
- Ki [2]: 1.6 µM

B5: H-FGVy-NH2 (peptide)
peptide: H-FGV[dY]-NH2
SMILES: CC(C)[C@H](NC(=O)CNC(=O)[C@@H](N)Cc1ccccc1)C(=O)N[C@H](Cc1ccc(O)cc1)C(N)=O
- % inhibition of forskolin-stimulate cAMP formation in hMOPr HEK cells (10 um) [1]: 0%

Molecule: H-FGG[dY]-NH2 (SMILES NC(=O)[C@@H](Cc1ccc(O)cc1)NC(=O)CNC(=O)CNC(=O)[C@@H](N)Cc1ccccc1) [H-FGGy-NH2]
- % inhibition of forskolin-stimulate cAMP formation in hMOPr HEK cells (10 um) [1]: 0%

Molecule: H-[dF]V[dV]F-OH [H-fVvF-OH]
- % inhibition of forskolin-stimulate cAMP formation in hMOPr HEK cells (10 um) [1]: 0%

Molecule: H-FV[dV][dF]-OH [H-FVvf-OH]
- % inhibition of forskolin-stimulate cAMP formation in hMOPr HEK cells (10 um) [1]: 0%

Molecule: H-[dF][dV]VF-OH [H-fvVF-OH]
- % inhibition of forskolin-stimulate cAMP formation in hMOPr HEK cells (10 um) [1]: 0%

Molecule: FVVF (D-Phe at 1; D-Val at 3; C-terminal amide) [H-fVvF-NH2]
- % inhibition of forskolin-stimulate cAMP formation in hMOPr HEK cells (10 um) [1]: 0%

Molecule: FVVF (D-Val at 3; D-Phe at 4; C-terminal amide) [H-FVvf-NH2]
- % inhibition of forskolin-stimulate cAMP formation in hMOPr HEK cells (10 um) [1]: 0%

B6: bilaid B (H-FvVy-OH) (peptide)
peptide: H-F[dV]V[dY]-OH
SMILES: CC(C)[C@H](NC(=O)[C@H](NC(=O)[C@@H](N)Cc1ccccc1)C(C)C)C(=O)N[C@H](Cc1ccc(O)cc1)C(=O)O
- % inhibition of forskolin-stimulate cAMP formation in hMOPr HEK cells (10 um) [1]: 0%
